# B1: maddinglicin leader peptide construct madL3, Leader 3 (−23 − +10) (peptide)
# chain: MGKLDDFDLDVKVKADTTKVGPAITSKSLCTPG
# modifications: synthetic, unmodified peptide (no lanthionine rings); MadA 1-33 from Table S4
# B2: maddinglicin leader peptide construct madL2, Leader 2 (−23 − +5) (peptide)
# chain: MGKLDDFDLDVKVKADTTKVGPAITSKS
# B3: maddinglicin leader peptide construct madL1, Leader 1 (−23 – −1) (peptide)
# chain: MGKLDDFDLDVKVKADTTKVGPA
# Experiments:
# Conditions in all cases: both partners purified
# [1] = target: T1, MadC (lanthionine cyclase of Clostridium sp. maddingley), His6-tag cleaved off (Clostridium sp. maddingley); assay: ITC; MadC (200–600 μM) in the syringe, 20 injections of 2 μl into the cell with the leader variant (20–60 μM); 25°C; 50 mM HEPES, 500 mM NaCl, pH 7.5; at least triplicate
# T1 construct: MadC, class I lanthipeptide cyclase, Clostridium sp. maddingley, NCBI EKQ50560.1, synthetic gene from GenScript in pET28b(+); calculated molecular weight 49.71 kDa; also called cleaved MadC; class I cyclase MadC; not shown: His6, N-terminal, cleaved
# [2] = target: T2, His6-MadC (hexa-histidine tagged cyclase MadC, wild type) (Clostridium sp. maddingley); assay: SPR; His6-MadC variant captured on a poly-NTA (Ni2+) chip to 400–500 RU; L3 injected at 180 nM to 30 μM; 200 mM NaCl, 50 mM HEPES/NaOH pH 8; affinity from the maximum RU values
# T2 construct: MadC, class I lanthipeptide cyclase, Clostridium sp. maddingley, NCBI EKQ50560.1, in pET28b(+) with N-terminal His6-tag and thrombin cleavage site; Thrombin cleavage site between the tag and MadC; Captured by the His-tag on the Ni-NTA chip in SPR; also the crystallised form (PDB 8BYK); also called wild-type MadC; not shown: His6, N-terminal, kept
# [3] = target: T1, MadC (lanthionine cyclase of …); assay: ITC; MadC (200–600 μM) in the syringe, 20 injections of 2 μl into the cell with the leader variant (20–60 μM); 25°C; 50 mM HEPES, 500 mM NaCl, pH 7.5; at least triplicate; remark: listed apart in the source
Binder,Kd [1] [µM],Kd [2] [µM],Kd [3] [µM]
B1,5.69,16 ± 7,–
B2,9.35,–,–
B3,10.4,–,10.5 ± 4.3
